The source of these data is patent publication US20240368233A1 (University of Washington, published 2024).

Several values for one entry are separate records, joined by “and”; a condition that tells them apart may be missing. Equal entries are not always repeated.

One data set has as its target T1, 206B62-2.
T1 chain: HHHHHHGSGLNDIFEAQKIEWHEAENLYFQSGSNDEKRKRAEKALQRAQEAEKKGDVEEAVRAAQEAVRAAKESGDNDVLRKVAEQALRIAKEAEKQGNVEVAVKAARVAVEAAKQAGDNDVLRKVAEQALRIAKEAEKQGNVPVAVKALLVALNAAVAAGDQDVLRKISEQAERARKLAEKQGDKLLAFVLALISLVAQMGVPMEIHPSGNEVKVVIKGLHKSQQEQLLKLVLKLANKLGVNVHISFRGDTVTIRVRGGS
Nature of the data set: SEC binding assay (Superdex 200, normalised A230) of A, B and the mixture AB. On the procedure: (§1) Complexes and individual components were diluted in 20 mM Tris pH 8.0, 100 mM NaCl. After o/n equilibration of the mixtures at room temperature or 4 degrees C., 500 ul of sample was injected onto a Superdex™ 200 10/300 increase GL (dimers, linear assemblies) or Superose™ 6 increase 10/300 GL (symmetric assemblies) (all columns from GE healthcare) using the absorbance at 230 nm or 473 nm (for GFP tagged components) as read-out. Dimers were mixed at monomer concentrations of 5 μM or higher. Trimer and ABCD tetramer mixtures contained 5 μM of the bivalent connector, and 7.5 μM of each terminal cap (lower absolute concentrations with the same ratios were used for some trimers). ABCA tetramer mixtures contained 5 μM per bivalent connector and 15 μM terminal cap. The hexamer mixture contained 3 μM of components C and D, 3.6 μM of B and E, and 4.4 μM of A and F. The branched assembly shown in FIG. 4A contained 2.8 μM of the trivalent connector and 4 μM of each cap. For the exchange experiment shown in FIG. 5A, the ABC trimer was preincubated at concentrations of 6 μM B and 9 μM each of A and C. C′ was then added to reach a final concentration of 2 μM B, 3 μM each of A and C, and 6 μM C′.

Another data set concerns the target T2, LHD206 B62-1.
T2 single chain, LHD206 chain B fused to DHR62: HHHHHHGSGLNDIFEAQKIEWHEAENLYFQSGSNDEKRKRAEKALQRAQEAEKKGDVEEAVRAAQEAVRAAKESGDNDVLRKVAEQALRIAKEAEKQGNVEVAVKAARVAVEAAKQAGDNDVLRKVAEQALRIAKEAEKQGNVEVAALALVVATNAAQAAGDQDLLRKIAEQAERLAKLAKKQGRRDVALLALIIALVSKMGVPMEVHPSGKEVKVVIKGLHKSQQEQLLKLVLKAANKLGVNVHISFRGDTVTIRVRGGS
The description is as above. Here is the method: as §1

The target in the next data set is T3, DF206.
T3 construct: Bivalent connector
T3 chain: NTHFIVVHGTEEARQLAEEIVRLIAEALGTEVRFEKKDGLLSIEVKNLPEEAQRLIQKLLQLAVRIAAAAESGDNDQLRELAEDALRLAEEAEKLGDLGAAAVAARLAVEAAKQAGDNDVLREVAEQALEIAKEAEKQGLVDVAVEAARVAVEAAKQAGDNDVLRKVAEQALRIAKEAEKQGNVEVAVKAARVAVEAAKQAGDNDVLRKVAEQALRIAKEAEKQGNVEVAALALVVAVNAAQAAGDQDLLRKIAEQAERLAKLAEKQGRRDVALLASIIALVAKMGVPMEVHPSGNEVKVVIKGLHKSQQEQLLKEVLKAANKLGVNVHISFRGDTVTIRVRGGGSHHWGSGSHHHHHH
Nature of the data set: SEC of mixed components; trimer listed in Table 6.

Another data set concerns the target T4, LHD101 chainB.
T4 construct: also called LHD101B
T4 chain: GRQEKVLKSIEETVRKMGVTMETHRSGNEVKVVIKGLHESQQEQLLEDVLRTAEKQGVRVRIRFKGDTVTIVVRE
Description: BLI steady-state titration, biotinylated unfused LHD101B on a streptavidin sensor. On the procedure:
Biolayer interferometry experiments were performed on an OctetRED96 BLI system (ForteBio, Menlo Park, CA). Streptavidin coated biosensors were first equilibrated for at least 10 minutes in Octet buffer (10 mM HEPES pH 7.4, 150 mM NaCl, 3 mM EDTA, 0.05% Surfactant P20) supplemented with 1 mg/ml Bovine Serum Albumin (SigmaAldrich). Enzymatically biotinylated designs were immobilized onto the biosensors by dipping the biosensors into a solution with 10-50 nM protein for 30-120 s. This was followed by dipping in fresh octet buffer to establish a baseline for 120 s. Titration experiments were performed at 25° C. while rotating at 1,000 r.p.m. Association of designs was allowed by dipping biosensors in solutions containing designed protein diluted in octet buffer until equilibrium was approached followed by dissociation by dipping the biosensors into fresh buffer solution in order to monitor the dissociation kinetics. Steady-state and global kinetic fits were performed using the manufacturer's software (Data Analysis 9.1) assuming a 1:1 binding model.

The next data set deals with T5, 101B82.
T5 chain: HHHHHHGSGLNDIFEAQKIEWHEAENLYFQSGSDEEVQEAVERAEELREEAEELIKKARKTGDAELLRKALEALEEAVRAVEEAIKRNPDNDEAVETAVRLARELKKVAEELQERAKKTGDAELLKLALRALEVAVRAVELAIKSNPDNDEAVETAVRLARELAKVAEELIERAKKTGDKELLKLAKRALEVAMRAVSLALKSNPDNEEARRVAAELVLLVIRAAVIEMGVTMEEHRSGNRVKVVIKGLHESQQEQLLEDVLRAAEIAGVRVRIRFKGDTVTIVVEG
Description: SEC binding assay (Superdex 200, normalised A230) of A, B and the mixture AB. Here is the method: as §1

The target of another data set is T6, 101B62.
T6 construct: also called LHD101B62
T6 chain: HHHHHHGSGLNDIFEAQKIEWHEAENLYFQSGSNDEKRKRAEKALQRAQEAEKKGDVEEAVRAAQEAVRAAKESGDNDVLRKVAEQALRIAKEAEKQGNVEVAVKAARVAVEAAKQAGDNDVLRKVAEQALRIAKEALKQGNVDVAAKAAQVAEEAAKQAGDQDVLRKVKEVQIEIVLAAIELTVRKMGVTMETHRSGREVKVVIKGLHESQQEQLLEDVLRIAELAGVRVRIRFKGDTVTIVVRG
Described as above. On the procedure: as §1

The next data set deals with T7, LHD101 B8.
T7 single chain, LHD101 chain B fused to DHR8: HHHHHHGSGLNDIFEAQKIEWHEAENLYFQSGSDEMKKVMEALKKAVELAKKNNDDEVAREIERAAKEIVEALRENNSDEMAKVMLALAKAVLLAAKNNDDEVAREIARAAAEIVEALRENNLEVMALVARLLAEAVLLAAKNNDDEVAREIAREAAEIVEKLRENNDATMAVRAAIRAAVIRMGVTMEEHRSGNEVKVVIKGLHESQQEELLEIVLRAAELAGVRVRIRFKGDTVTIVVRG
The data set is described as above. On the procedure:
as §1

Another data set deals with T8, 101B4.
T8 construct: also called LHD101B4
T8 chain: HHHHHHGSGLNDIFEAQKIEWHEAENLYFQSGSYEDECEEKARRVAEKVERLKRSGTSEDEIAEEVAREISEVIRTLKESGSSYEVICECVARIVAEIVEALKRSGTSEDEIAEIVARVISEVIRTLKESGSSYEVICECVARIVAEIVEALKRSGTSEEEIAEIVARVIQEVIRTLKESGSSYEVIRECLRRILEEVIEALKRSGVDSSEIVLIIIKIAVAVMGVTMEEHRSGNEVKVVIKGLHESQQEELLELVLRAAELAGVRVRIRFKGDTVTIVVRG
The data set is described as above. On the procedure:
as §1

In a further data set the target is T9, 101B14.
T9 construct: also called LHD101 B14
T9 single chain, LHD101 chain B fused to DHR14: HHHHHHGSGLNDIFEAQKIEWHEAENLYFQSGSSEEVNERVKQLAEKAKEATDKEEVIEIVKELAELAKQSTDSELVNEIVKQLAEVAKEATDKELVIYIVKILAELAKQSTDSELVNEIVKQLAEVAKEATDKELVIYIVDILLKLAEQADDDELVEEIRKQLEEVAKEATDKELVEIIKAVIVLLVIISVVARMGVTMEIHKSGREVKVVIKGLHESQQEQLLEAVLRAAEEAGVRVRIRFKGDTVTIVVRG
The description is as above. On the procedure:
as §1

Data set [1] concerns the molecule itself. Description: SEC titration of the protomer alone at several injection concentrations (Superdex 200, normalised A230); self-association.
In a further data set the target is T10, 284B.
T10 construct: also called LHD284 B; LHD284 chainB
T10 chain: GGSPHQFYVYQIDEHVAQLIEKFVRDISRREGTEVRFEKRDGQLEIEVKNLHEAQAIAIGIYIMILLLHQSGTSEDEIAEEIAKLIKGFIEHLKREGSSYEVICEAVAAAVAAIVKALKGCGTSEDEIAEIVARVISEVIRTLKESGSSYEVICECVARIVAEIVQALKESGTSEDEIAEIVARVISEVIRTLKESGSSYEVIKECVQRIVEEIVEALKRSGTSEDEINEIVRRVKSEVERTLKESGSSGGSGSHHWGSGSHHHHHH
Description: SEC binding assay (Superdex 200, normalised A230) of A, B and the mixture AB. On the procedure: as §1

Data set [2] addresses T11, LHD101 chainA, split luciferase reporter construct.
T11 construct: not shown: N-terminal Strep-tag and sfGFP; GS-linker and smBiT or lgBiT
T11 chain: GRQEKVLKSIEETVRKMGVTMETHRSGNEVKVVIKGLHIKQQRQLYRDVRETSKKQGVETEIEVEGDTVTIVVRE
Nature of the data set: split luciferase equilibrium titration in E. coli lysate, constant partner at 1 nM; first-named construct read as the titrated one; no unit beside the number, M from the axis '[Titrated] / M'.

For a further data set, the target named is T12, 29B53.
T12 construct: also called LHD29B53
T12 chain: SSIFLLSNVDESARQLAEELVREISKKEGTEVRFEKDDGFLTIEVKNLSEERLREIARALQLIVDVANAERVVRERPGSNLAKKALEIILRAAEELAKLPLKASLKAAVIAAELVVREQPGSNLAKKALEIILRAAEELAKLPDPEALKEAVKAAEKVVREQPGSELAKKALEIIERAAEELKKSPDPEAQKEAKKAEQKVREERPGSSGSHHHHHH
Nature of the data set: SEC titration (Superdex 200, normalised A230) of the complexes 274A53/274B53 and 29A53/29B53.

B1: 206A54 (designed binder)
chain: HHHHHHGSGLNDIFEAQKIEWHEAENLYFQSGSTEDERRELEKVARKAIEAAREGNTDEVREQLQRALEIARESGTTEAVKLALEVVARVAIEAARRGNTDAVREALEVALEIARESGTTEAVKLALEVVARVAIEAARRGNTDAVREALAVAVKIALKSGTEEAFRLAKEVIKRVSDEAKKQGNEDAVKEAESFDAAAELILSLLKLFRELHERGTEIVVEVHINGRKTEIEVQGIDKRLLQIILEVIIEEIAREGPDKVEVNVHSGGQTWTFRYGGS
For the molecule B1, the binding result in the data set with 206B62-2, with LHD206 B62-1 and with DF206 was “binds” throughout.

B2: 101A21 (designed binder)
chain: HHHHHHGSGLNDIFEAQKIEWHEAENLYFQSGSSEKEKVEELAQRIREQLPDTELAREAQELADEARKSDDSEALKVVYLALRIVQQLPDTELAREALELAKEAVKSTDSEKLKVVYLALRVVQQLPDTEEARKALEIAKEAVKADAQILLAIARAVLKMGVEMEVHPSGNEVKVVIKGLHIKQQRQLYRDVREAAKKAGVEVEIEVEGDTVTIVVRE
On to B2, for which the binding result with LHD101 chainB, with 101B82, with 101B62, in the data set with LHD101 B8, with 101B4 and with 101B14 was “binds” in each case. For the same molecule, the binding result in data set [1] was “no binding”.

B3: 284A82 (designed binder)
chain: HHHHHHGSGLNDIFEAQKIEWHEAENLYFQSGSDEEVQEAVERAEELREEAEELIKKARKTGDAELLRKALEALEEAVRAVEEAIKRNPDNDEAVETAVRLARELKKVAEELQERAKKTGDAELLKLALRALEVAVRAVELAIKSNPDNDEAVETAVRLAKELLKVAILLAKRAQETGDKELEKLARRALEVAKRAVELAIKSNPDNKEARILKLLLELAELLIELALRGTIIIVEVHINGERQTKYLILAPVEELLKHLERIEEKIKREGASEVEVKVTSGGTTWTFNIKGS
notes: also called LHD284 A DHR82 N
Regarding B3, the binding result with 284B is reported as “binds”.

B4: LHD101 chainB, split luciferase reporter construct (designed binder)
chain: GRQEKVLKSIEETVRKMGVTMETHRSGNEVKVVIKGLHESQQEQLLEDVLRTAEKQGVRVRIRFKGDTVTIVVRE
notes: not shown: N-terminal Strep-tag and sfGFP; GS-linker and smBiT or lgBiT
On to B4, for which, in data set [2], the Kd is 8 nM and 11 nM.

B5: 29A53 (designed binder)
chain: TWQWVLINISEEARQLIEKAVRAISKKEGTEVHFEKDDGVLHIRVKNLHEKRAREIHKVAKLILEVAAAERIVRERPGSNLAKKALEIILRAAEELAKADVDAALEAAVRAAEKVVREQPGSNLAKKALEIILRAAEELAKLPDPEALKEAVKAAEKVVREQPGSELAKKALEIIERAAEELKKSPDPEAQKEAKKAEQKVREERPGSSGSHHHHHH
notes: also called LHD29A53
B5: the binding result (in the data set with 29B53; in data set [1]) was “binds” in each case.

For orientation: Kd means the concentration at which binding is half-saturated. Low values mean a tighter complex, high ones a looser complex.
